Source: the supplement of paper PMC7125110
± gives the standard error. This sample holds only a part of the variants without activity.

B1: glmS ribozyme (parent)
chain: AUAAAAGCGCCAGAACUACAGAAAUGUAGUUGACGAGGAGGAGGUUUAUCGAAUUUUCGGCGGAUGCCUCCAAA

Experiments:
Conditions in all cases: with glucosamine-6-phosphate
glucosamine-6-phosphate [1] = variants of: B1; assay: self-cleavage kobs at 640 uM GlcN6P; higher = faster cleavage; RNA array
Procedure, shortened: (§1)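 On sequenced MiSeq chips, barcoded ribozyme variants were made in situ by E. coli RNA polymerase and followed at 37 °C through a hybridised Cy3 probe. Glucosamine-6-phosphate was flowed in at 40 μM to 10 mM in HEPES/KCl/Mg(OAc)2 buffer. Exponential fits to normalised per-tile medians gave kobs, and weighted Michaelis–Menten fits gave kcat and KM.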

glucosamine-6-phosphate [2] = variants of: B1; assay: self-cleavage kobs at 2500 uM GlcN6P; higher = faster cleavage; RNA array
Procedure, shortened: as §1

glucosamine-6-phosphate [3] = variants of: B1; assay: self-cleavage kobs at 10000 uM GlcN6P; higher = faster cleavage; RNA array
Procedure, shortened: as §1

| Variant | self-cleavage kobs at 640 uM GlcN6P (glucosamine-6-phosphate [1]) | self-cleavage kobs at 2500 uM GlcN6P (glucosamine-6-phosphate [2]) | self-cleavage kobs at 10000 uM GlcN6P (glucosamine-6-phosphate [3]) |
| --- | --- | --- | --- |
| A6C A33C A48C G60U | < 1e-05 s⁻¹ | – | – |
| A52U A53C C71G | < 1e-05 s⁻¹ | < 1e-05 s⁻¹ | – |
| A14C A53U C67U | 0.000153 ± 4.6e-05 s⁻¹ | 0.000626 ± 0.0002 s⁻¹ | – |
| G59C A64G U69G | < 1e-05 s⁻¹ | – | – |
| A36G G66U | < 1e-05 s⁻¹ | < 1e-05 s⁻¹ | < 1e-05 s⁻¹ |
| C8G C50G A52U | < 1e-05 s⁻¹ | – | – |
| C11U C50U G60C | < 1e-05 s⁻¹ | – | – |
| C8A U69A | 0.00169 ± 0.00074 s⁻¹ | – | – |
| A14U C16A G29A | 8.7e-05 ± 2.4e-05 s⁻¹ | – | – |
| G40A G51A U55A | < 1e-05 s⁻¹ | – | – |
| A12G C50G C71G | 0.000415 ± 0.00014 s⁻¹ | 0.000636 ± 0.00027 s⁻¹ | – |
| G7A C10U C67G | 8.24e-05 ± 3.5e-05 s⁻¹ | – | – |
| U49C C50A C70A | 7.42e-05 ± 3.6e-05 s⁻¹ | – | – |
| A33C A36U G37U C71U | < 1e-05 s⁻¹ | < 1e-05 s⁻¹ | – |
| G29A A36C | < 1e-05 s⁻¹ | < 1e-05 s⁻¹ | < 1e-05 s⁻¹ |
| A33U G41U G60C | < 1e-05 s⁻¹ | – | – |
| G13C A14C G32U U69C | 8.31e-05 ± 2.1e-05 s⁻¹ | 7.03e-05 ± 2e-05 s⁻¹ | – |
| A12G G43C A53G | < 1e-05 s⁻¹ | < 1e-05 s⁻¹ | – |
| A33U U49A G51C | < 1e-05 s⁻¹ | – | – |
| A6C U69G | 0.000265 ± 0.00011 s⁻¹ | – | – |
| C8U C58A U65C | < 1e-05 s⁻¹ | < 1e-05 s⁻¹ | – |
| G44U C67U C71U | 0.00022 ± 6.3e-05 s⁻¹ | 0.00069 ± 0.00025 s⁻¹ | – |
| G35A A53G G60C | < 1e-05 s⁻¹ | < 1e-05 s⁻¹ | – |

| Variant | self-cleavage kobs at 640 uM GlcN6P (glucosamine-6-phosphate [1]) | self-cleavage kobs at 2500 uM GlcN6P (glucosamine-6-phosphate [2]) | self-cleavage kobs at 10000 uM GlcN6P (glucosamine-6-phosphate [3]) |
| --- | --- | --- | --- |
| A36C G51A C71G | 6.03e-05 ± 2.2e-05 s⁻¹ | – | – |
| A33G A36G G38A | < 1e-05 s⁻¹ | – | – |
| A6U G51C U56A U69G C70A | 0.000269 ± 8e-05 s⁻¹ | – | – |
| G7C A15C G51U C61A G66U | < 1e-05 s⁻¹ | – | – |
| G41U A48U A64C | < 1e-05 s⁻¹ | < 1e-05 s⁻¹ | – |
| C16A G32A C34A | < 1e-05 s⁻¹ | < 1e-05 s⁻¹ | < 1e-05 s⁻¹ |
| G7U C8G G38C | < 1e-05 s⁻¹ | – | – |
| C10A U30C G37U | < 1e-05 s⁻¹ | – | – |
| G41U G59U G63U | < 1e-05 s⁻¹ | – | – |
| C34A G41A | < 1e-05 s⁻¹ | < 1e-05 s⁻¹ | – |
| C50G C58U C61U | 0.000479 ± 0.00011 s⁻¹ | – | – |
| G32C A33G A42U U45G U57C A64C C71A | < 1e-05 s⁻¹ | < 1e-05 s⁻¹ | – |
| G13U G35U G40U A53U | < 1e-05 s⁻¹ | – | – |
| C8A G37U A52G C70G | 0.000115 ± 5.1e-05 s⁻¹ | – | – |
| G43C A52C C68A | < 1e-05 s⁻¹ | – | – |
| C10U G13A U45G U49C | < 1e-05 s⁻¹ | – | – |
| A33U A42U G44C | < 1e-05 s⁻¹ | – | – |
| G29U G66C | 4.59e-05 ± 1.9e-05 s⁻¹ | 9.16e-05 ± 2.9e-05 s⁻¹ | – |
| A14C A33C A53U U55A G60U | < 1e-05 s⁻¹ | < 1e-05 s⁻¹ | – |
| C11G A14G G41A G43C | < 1e-05 s⁻¹ | < 1e-05 s⁻¹ | – |
| G9C C50G G60C C70A | 0.000151 ± 4.9e-05 s⁻¹ | 0.000123 ± 3.7e-05 s⁻¹ | – |
| C11A U30G U65C | < 1e-05 s⁻¹ | < 1e-05 s⁻¹ | – |
| G38A A39U U55G U69G | < 1e-05 s⁻¹ | – | – |

| Variant | self-cleavage kobs at 640 uM GlcN6P (glucosamine-6-phosphate [1]) | self-cleavage kobs at 2500 uM GlcN6P (glucosamine-6-phosphate [2]) | self-cleavage kobs at 10000 uM GlcN6P (glucosamine-6-phosphate [3]) |
| --- | --- | --- | --- |
| G51A G66A U69A | 0.000177 ± 7.9e-05 s⁻¹ | – | – |
| G40U U45C | 0.000101 ± 2.7e-05 s⁻¹ | 0.000729 ± 0.00014 s⁻¹ | 0.000329 ± 7e-05 s⁻¹ |
| U49C C50U G51A | < 1e-05 s⁻¹ | < 1e-05 s⁻¹ | – |
| U45A G51C G60A C71U | < 1e-05 s⁻¹ | < 1e-05 s⁻¹ | – |
| A12U G29U G37A U55A | 0.000291 ± 8.3e-05 s⁻¹ | 0.000446 ± 9.5e-05 s⁻¹ | – |
| C8U A33U U46G A53G U55A | < 1e-05 s⁻¹ | < 1e-05 s⁻¹ | – |
| C11A G37A C50U G59A C67U U69G | 6.37e-05 ± 2.7e-05 s⁻¹ | – | – |
| U31C G60A U69A | < 1e-05 s⁻¹ | – | – |
| A6G A36C C50G | 0.000132 ± 3.4e-05 s⁻¹ | – | – |
| G13C A33C | < 1e-05 s⁻¹ | < 1e-05 s⁻¹ | – |
| U30A G38U | < 1e-05 s⁻¹ | < 1e-05 s⁻¹ | – |
| G35U G44U C68A | < 1e-05 s⁻¹ | < 1e-05 s⁻¹ | – |
| C11U A15G G60U | < 1e-05 s⁻¹ | – | – |
| G32U A39G C71U | 0.000114 ± 3.4e-05 s⁻¹ | 0.00038 ± 0.0001 s⁻¹ | – |
| A15U G66C C68A | 8.24e-05 ± 3.9e-05 s⁻¹ | 6.09e-05 ± 2.8e-05 s⁻¹ | – |
| G37C A48C C71G | < 1e-05 s⁻¹ | – | – |
| G13U A48C G59U G66U | < 1e-05 s⁻¹ | – | – |
| C11U A33C G41A | < 1e-05 s⁻¹ | – | – |
| G51C U56G | < 1e-05 s⁻¹ | < 1e-05 s⁻¹ | < 1e-05 s⁻¹ |
| G51C U56A | < 1e-05 s⁻¹ | – | < 1e-05 s⁻¹ |
| A14U A36G U47A | < 1e-05 s⁻¹ | < 1e-05 s⁻¹ | – |
